Measured values as given in patent US20120027769A1 (BHARAT SERUMS AND VACCINES, published 2012).
“And” between values parts separate entries of the source, which are not always exact repeats. Identical values can stand only once.

T1: Rhesus D antigen on RhD-positive human red blood cells (human, UniProt Q02161 2-417)
T1 sequence (looked up): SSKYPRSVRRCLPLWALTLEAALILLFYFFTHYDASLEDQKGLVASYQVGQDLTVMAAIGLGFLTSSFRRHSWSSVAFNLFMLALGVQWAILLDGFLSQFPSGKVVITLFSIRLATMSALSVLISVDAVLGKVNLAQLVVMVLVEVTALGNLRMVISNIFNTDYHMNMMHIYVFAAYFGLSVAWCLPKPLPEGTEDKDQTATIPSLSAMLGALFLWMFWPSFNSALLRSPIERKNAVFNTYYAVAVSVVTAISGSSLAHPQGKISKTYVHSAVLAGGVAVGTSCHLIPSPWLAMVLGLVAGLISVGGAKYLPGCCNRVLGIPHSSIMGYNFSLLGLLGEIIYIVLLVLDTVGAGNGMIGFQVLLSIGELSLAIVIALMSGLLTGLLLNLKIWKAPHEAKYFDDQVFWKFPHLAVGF


Experiments:
[1] = molecular target: T1, Rhesus D antigen on RhD-positive human …; assay: cell-based or functional assay
[2] = molecular target: T1, Rhesus D antigen on RhD-positive human …; assay: hemagglutination of bromelain-treated RhD-positive erythrocytes, Technicon Autoanalyzer, against the NIBSC polyclonal standard
Protocol: Briefly, bromelain-treated RhD positive red cells are incubated with various concentrations of anti-RhD antibodies. The cells are allowed to agglutinate over a period of time. The agglutinated cells are removed in the autoanalyzer and the rest of the erythrocytes are lysed using detergent. The optical density of the released hemoglobin is measured spectrophotometrically. The anti-D concentrations of the samples are calculated using a standard graph obtained from various concentrations of the Anti-D standard.

| ADCC EC50 (ng of Active Ab/ml), Average [1] | ADCC EC50 (ng of Active Ab/ml), Experiment 1 [1] | ADCC EC50 (ng of Active Ab/ml), Experiment 2 [1] | Agglutination Titer (µg of Active Ab per mg of Protein) [2] | Binder |
| --- | --- | --- | --- | --- |
| 0.3 ng of Active Ab/ml and 0.2 ng of Active Ab/ml | 0.2 ng of Active Ab/ml and 0.1 ng of Active Ab/ml | 0.3 ng of Active Ab/ml and 0.2 ng of Active Ab/ml |  | anti-RhD monoclonal antibody RhD3 (antibody, human IgG3, kappa, V domains shown) VH: QVTLKESGPVLVKPTETLTLTCTVSGFSLNNARMGVSWIRQPPGKALEWLAHIFSNDEKSYSTSLKSRLTISKDTSKSQVFLTMTNMDPVDTATYYCARTPITMVRGAIRLYYYYYMDVWGKGTTVTVSS VL: DIQVTQSPSSLSASVGDRVTINCRASQSIGTYLNWYQQKPGKAPNLLIYAASSLQSGVPSRFSGSGSGTDFTLTISSLQPEDFATYYCQQTYSTPTWTFGRGTKVEIKR |
| 1.1 ng of Active Ab/ml and 0.7 ng of Active Ab/ml | 0.7 ng of Active Ab/ml and 0.4 ng of Active Ab/ml | 1.5 ng of Active Ab/ml and 0.9 ng of Active Ab/ml |  | anti-RhD monoclonal antibody RhD1 (antibody, human IgG1, lambda) heavy: not shown light: QSALTQPASVSGSPGQSITISCSGSSSDVGGYKYVSWYQQHPGKAPQLMIYDVNNRPSGVSNRFSGSKSGNTASLTISGLQAEDEADYYCSSYTSSSTRVFGGGTKLTVLGQPKAAPSVTLFPPSSEELQANKATLVCLISDFYPGAVTVAWKADSSPVKAGVETTTPSKQSNNKYAASSYLSLTPEQWKSHKSYSCQVTHEGSTVEKTVAPTECS |
| 0.3 ng of Active Ab/ml | 0.1 ng of Active Ab/ml | 0.5 ng of Active Ab/ml | 303 µg of Active Ab per mg of Protein | RhD4 (IgG3 variant of RhD1: RhD1V3C heavy chain and RhD1 light chain) (antibody, IgG3, lambda chimera; The limits were converted from the nucleotide limits: variable region nt 58-448, constant region from nt 449; The NheI site was made by silent mutations only) heavy: QVQLVQSGAEVKKPGSSVKVSCKASGGIFRTYAISWVRQAPGQGLEWMGGIIPMFGTVNYAQKFQGRVTISADKSTSTAYMELSRLRSEDTAVYYCARPPSGGCGGDCSRRGYYYAMDVWGQGTTITVSSASTKGPSVFPLAPCSRSTSGGTAALGCLVKDYFPEPVTVSWNSGALTSGVHTFPAVLQSSGLYSLSSVVTVPSSSLGTQTYTCNVNHKPSNTKVDKRVELKTPLGDTTHTCPRCPEPKSCDTPPPCPRCPEPKSCDTPPPCPRCPEPKSCDTPPPCPRCPAPELLGGPSVFLFPPKPKDTLMISRTPEVTCVVVDVSHEDPEVQFKWYVDGVEVHNAKTKPREEQFNSTFRVVSVLTVLHQDWLNGKEYKCKVSNKALPAPIEKTISKTKGQPREPQVYTLPPSREEMTKNQVSLTCLVKGFYPSDIAVEWESSGQPENNYNTTPPMLDSDGSFFLYSKLTVDKSRWQQGNIFSCSVMHEALHNRFTQKSLSLSPGK light: QSALTQPASVSGSPGQSITISCSGSSSDVGGYKYVSWYQQHPGKAPQLMIYDVNNRPSGVSNRFSGSKSGNTASLTISGLQAEDEADYYCSSYTSSSTRVFGGGTKLTVLGQPKAAPSVTLFPPSSEELQANKATLVCLISDFYPGAVTVAWKADSSPVKAGVETTTPSKQSNNKYAASSYLSLTPEQWKSHKSYSCQVTHEGSTVEKTVAPTECS |
